For one substance, Surface Bound MIP-1α results are on record in patent EP0901379B1.

For the test, the target named is human MIP-1α (human) (UniProt P10147). The test can be described thus: 125I-MIP-1α bound to cells with 200X molar excess M-T1, Exp. 1.
UniProt P10147, sequence (P10147 24-92 limits assumed): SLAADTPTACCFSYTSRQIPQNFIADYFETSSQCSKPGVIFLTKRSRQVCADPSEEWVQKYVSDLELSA

The substance myxoma T1 protein (M-T1) yielded a Surface Bound MIP-1α of 978 cpm.
